Results from the supplement of paper PMC9112550, “Optimization of the antimicrobial peptide Bac7 by deep mutational scanning” (BMC Biology, 2022).

Test system: Escherichia coli TOP10
Test: shrunken log2 fold change of peptide-encoding DNA abundance (4.5 h post-induction vs induction); higher = less antimicrobial activity (less host growth inhibition)
Settings: time post-induction: 4.5 h; library: site-saturation at positions 5, 18, 19, 20
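Further: peptides expressed intracellularly from a pBAD plasmid library in pooled LB shake-flask culture, induced with 0.3% L-arabinose, DNA abundance read by NGS, three biological replicates, DESeq2 with apeglm shrinkage.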

Sequence	shrunken log2 fold change
RRIRYRPPRLPRPRPRPAVHPRP	-0.0328
RRIRDRPPRLPRPRPRPANTPRP	-0.0443
RRIRIRPPRLPRPRPRPMERPRP	-0.0018
RRIRDRPPRLPRPRPRPQANPRP	0.231
RRIRYRPPRLPRPRPRPWWWPRP	0.0798
RRIRLRPPRLPRPRPRPREYPRP	0.289
RRIRMRPPRLPRPRPRPCFNPRP	-0.000544
RRIRDRPPRLPRPRPRPNTAPRP	-0.0636
RRIRARPPRLPRPRPRPTLLPRP	0.286
RRIRGRPPRLPRPRPRPDHDPRP	0.301
RRIRNRPPRLPRPRPRPMEFPRP	-0.136
RRIRVRPPRLPRPRPRPMMFPRP	-0.0953
RRIRERPPRLPRPRPRPSCCPRP	0.294
RRIRSRPPRLPRPRPRPKENPRP	-0.0465
RRIRERPPRLPRPRPRPNYHPRP	-0.626
RRIRNRPPRLPRPRPRPFSIPRP	0.000741
RRIRQRPPRLPRPRPRPQTWPRP	0.126
RRIRKRPPRLPRPRPRPTFTPRP	0.186
RRIRKRPPRLPRPRPRPYFGPRP	-0.711
RRIRWRPPRLPRPRPRPNISPRP	-0.279
RRIRWRPPRLPRPRPRPWKCPRP	-0.01
RRIRCRPPRLPRPRPRPSIVPRP	-0.965

Sequence	shrunken log2 fold change
RRIRNRPPRLPRPRPRPSRTPRP	0.0867
RRIRIRPPRLPRPRPRPFFEPRP	-0.267
RRIRIRPPRLPRPRPRPNMDPRP	-0.874
RRIRRRPPRLPRPRPRPCKKPRP	0.0185
RRIRWRPPRLPRPRPRPMMDPRP	0.000475
RRIRWRPPRLPRPRPRPNFWPRP	0.224
RRIRQRPPRLPRPRPRPHITPRP	-1.1
RRIRYRPPRLPRPRPRPMKVPRP	0.0135
RRIRQRPPRLPRPRPRPVYYPRP	0.0771
RRIRWRPPRLPRPRPRPYGKPRP	0.027
RRIRKRPPRLPRPRPRPMTMPRP	-0.00185
RRIRMRPPRLPRPRPRPILTPRP	0.168
RRIRGRPPRLPRPRPRPKKIPRP	0.494
RRIRARPPRLPRPRPRPAHTPRP	0.544
RRIRIRPPRLPRPRPRPSMTPRP	-0.43
RRIRSRPPRLPRPRPRPIRLPRP	-0.27
RRIRWRPPRLPRPRPRPQMVPRP	0.0853
RRIRKRPPRLPRPRPRPLMGPRP	0.818
RRIRKRPPRLPRPRPRPQDVPRP	-0.0018
RRIRNRPPRLPRPRPRPHMSPRP	0.0135
RRIRRRPPRLPRPRPRPRKEPRP	0.4
RRIRDRPPRLPRPRPRPEYHPRP	-0.000207

Sequence	shrunken log2 fold change
RRIRQRPPRLPRPRPRPWDAPRP	-0.0479
RRIRARPPRLPRPRPRPIYPPRP	-0.387
RRIRARPPRLPRPRPRPHRYPRP	-0.147
RRIRHRPPRLPRPRPRPWYMPRP	-0.324
RRIRDRPPRLPRPRPRPHLWPRP	0.611
RRIRTRPPRLPRPRPRPYNYPRP	-0.866
RRIRNRPPRLPRPRPRPQILPRP	-0.265
RRIRCRPPRLPRPRPRPNWPPRP	0.0717
RRIRIRPPRLPRPRPRPSAAPRP	0.0317
RRIRYRPPRLPRPRPRPHWNPRP	-0.799
RRIRCRPPRLPRPRPRPIDSPRP	-0.197
RRIRARPPRLPRPRPRPNFIPRP	-0.521
RRIRTRPPRLPRPRPRPSREPRP	0.427
RRIRGRPPRLPRPRPRPTSRPRP	0.336
RRIRGRPPRLPRPRPRPSKDPRP	0.0908
RRIRTRPPRLPRPRPRPIHVPRP	0.00961
RRIRLRPPRLPRPRPRPNRFPRP	-0.404
RRIRTRPPRLPRPRPRPFSTPRP	-0.0812
RRIRVRPPRLPRPRPRPFGFPRP	-0.294
RRIRKRPPRLPRPRPRPHHYPRP	-0.737
RRIRQRPPRLPRPRPRPSCLPRP	-0.0903
RRIRKRPPRLPRPRPRPPDIPRP	0.609

Sequence	shrunken log2 fold change
RRIRSRPPRLPRPRPRPCFKPRP	-0.173
RRIRLRPPRLPRPRPRPGGPPRP	1.36
RRIRGRPPRLPRPRPRPSARPRP	1.1
RRIRYRPPRLPRPRPRPIYLPRP	-0.0172
RRIRCRPPRLPRPRPRPWDTPRP	-0.282
RRIRWRPPRLPRPRPRPQKEPRP	0.0282
RRIRNRPPRLPRPRPRPMVHPRP	-0.00783
RRIRWRPPRLPRPRPRPGMCPRP	0.437
RRIRLRPPRLPRPRPRPCTFPRP	-0.0569
RRIRERPPRLPRPRPRPCAWPRP	-0.0536
RRIRNRPPRLPRPRPRPPAIPRP	0.276
RRIRERPPRLPRPRPRPLEPPRP	0.0736
RRIRWRPPRLPRPRPRPYQQPRP	-0.0018
RRIRYRPPRLPRPRPRPVLMPRP	-0.83
RRIRIRPPRLPRPRPRPLENPRP	-0.309
RRIRGRPPRLPRPRPRPWRIPRP	-0.15
RRIRKRPPRLPRPRPRPDIYPRP	0.152
RRIRIRPPRLPRPRPRPNACPRP	0.00304
RRIRSRPPRLPRPRPRPHIAPRP	-0.255
RRIRIRPPRLPRPRPRPVENPRP	-0.0976
RRIRWRPPRLPRPRPRPKQEPRP	0.0489
RRIRPRPPRLPRPRPRPQYTPRP	-0.813

Sequence	shrunken log2 fold change
RRIRIRPPRLPRPRPRPNFWPRP	-0.0359
RRIRFRPPRLPRPRPRPWGHPRP	-0.000438
RRIRFRPPRLPRPRPRPTEIPRP	-0.413
RRIRQRPPRLPRPRPRPDWNPRP	-0.189
RRIRNRPPRLPRPRPRPRTWPRP	0.415
RRIRGRPPRLPRPRPRPSLQPRP	1.07
RRIRPRPPRLPRPRPRPPYGPRP	-0.268
RRIRLRPPRLPRPRPRPHGNPRP	-0.186
RRIRFRPPRLPRPRPRPQRGPRP	0.353
RRIRARPPRLPRPRPRPKRHPRP	0.511
RRIRMRPPRLPRPRPRPHQGPRP	0.013
RRIRCRPPRLPRPRPRPKGQPRP	0.0213
RRIRFRPPRLPRPRPRPGMPPRP	-0.0207
RRIRRRPPRLPRPRPRPQWNPRP	-0.153
RRIRRRPPRLPRPRPRPGKVPRP	-0.037
RRIRMRPPRLPRPRPRPWHAPRP	0.098
RRIRPRPPRLPRPRPRPINWPRP	-0.241
RRIRDRPPRLPRPRPRPTHSPRP	0.177
RRIRHRPPRLPRPRPRPEGHPRP	0.065
RRIRHRPPRLPRPRPRPWTIPRP	-0.0445
RRIRKRPPRLPRPRPRPLSFPRP	-0.191
